Source: publication PMC2824758

Target: CD81 large external loop (LEL) (UniProt P60033)
Sequence of UniProt P60033 (P60033 113-201): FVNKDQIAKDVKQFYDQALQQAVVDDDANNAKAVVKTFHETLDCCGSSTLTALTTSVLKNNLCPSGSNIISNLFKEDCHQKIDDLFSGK

## HCV E2 ectodomain (E2e), isolate UKN2b_2.8, genotype 2b (domain or fragment)
  inhibition of infection of Huh-7.5 cells by HCVcc (infected foci, HCV core immunofluorescence), cells preincubated with 0.05 to 2 µM HCV E2e; 10% inhibition at 0.05 µM: 90%
